Reference: patent US20140030286A1 (COMMISSARIAT A L ENERGIE ATOMIQUE ET AUX ENERGIES …, published 2014)

Legend:
[1] = biological target: T1, In (derivative of In without His tag, co-expressed with HisJo) (Streptococcus pneumoniae); assay: electrospray mass spectrometry of the purified complex (measured 25589, calculated 25606.03; loss of 17 Da)
T1 construct: Expressed from MCSII of pETDuet (pETDuet-In, pETDuet-HisJoIn); also called In peptide
T1 chain: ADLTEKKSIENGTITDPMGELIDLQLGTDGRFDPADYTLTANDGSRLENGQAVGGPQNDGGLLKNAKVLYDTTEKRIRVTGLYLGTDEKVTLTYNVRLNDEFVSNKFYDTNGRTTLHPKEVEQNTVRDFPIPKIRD

HisIn = biological target: T2, HisIn (Streptococcus pneumoniae); assay: electrospray mass spectrometry of the purified complex (measured 26772, calculated 26788.16)
T2 construct: Recombinant, made in E. coli from pACYCDuet-HisIn; also called In peptide; In protein
T2 chain: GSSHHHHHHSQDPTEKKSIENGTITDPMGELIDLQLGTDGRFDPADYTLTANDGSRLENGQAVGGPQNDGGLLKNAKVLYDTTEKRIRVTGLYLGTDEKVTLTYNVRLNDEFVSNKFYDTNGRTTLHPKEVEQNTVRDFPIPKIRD

[2] = biological target: the molecule itself; assay: gel filtration (S200 10/300GL), self-association
[3] = biological target: the molecule itself; assay: SDS-PAGE with and without 25 mM DTT, disulphide-linked homodimer (FIG. 12)

B1: HisJo (peptide)
chain: GSSHHHHHHSQDPSDQYPQTGTYPDVQTPYQIIKVDGSEKNGQHKALNPNPYERVIPEGTLSKRIYQVNNLDDNQYGIELTVSGKTVYEQKD
notes: Recombinant, made in E. coli from pETDuet-HisJo; The Jo peptide is RrgA 144-218; the derivative has two more residues at each end; also called Jo peptide; Jo protein
binding result [1]: binds
binding result (HisIn): binds

B2: FusJoIn (other)
chain: GSSHHHHHHSQDPSDQYPQTGTYPDVQTPYQIIKVDGSEKNGQHKALNPNPYERVIPEGTLSKRIYQVNNLDDNQYGIELTVSGKTVYEQKDGSTPGSVTEKKSIENGTITDPMGELIDLQLGTDGRFDPADYTLTANDGSRLENGQAVGGPQNDGGLLKNAKVLYDTTEKRIRVTGLYLGTDEKVTLTYNVRLNDEFVSNKFYDTNGRTTLHPKEVEQNTVRDFPIPKIRD
notes: Single chain with the isopeptide bond inside the chain; Used as the control for the dimerisation of Jo-B1CK-In; also called FusJoIn complex; Jo-In fused via a linker of 7 amino acids
binding result [2]: no binding

B3: Jo-B1CK-In (other)
chain: MGSSHHHHHHSQDPSDQYPQTGTYPDVQTPYQIIKVDGSEKNGQHKALNPNPYERVIPEGTLSKRIYQVNNLDDNQYGIELTVSGKTVYEQKDGIPEISQRTTIVIQKQTFISQHSCVNSTELDELIQQIVAAINAGIIPLGNTSNQISKLTEKKSIENGTITDPMGELIDLQLGTDGRFDPADYTLTANDGSRLENGQAVGGPQNDGGLLKNAKVLYDTTEKRIRVTGLYLGTDEKVTLTYNVRLNDEFVSNKFYDTNGRTTLHPKEVEQNTVRDFPIPKIRD
notes: Circularised within the chain by the Jo-In isopeptide bond; Forms a disulphide-linked dimer through the cysteine of the B1CK loop; also called fusion Jo-B1CK-In; recombinant protein Jo-B1CK-In
binding result [3]: binds
